Here are results for eight molecules from paper PMC10167327, “Inositol pyrophosphates activate the vacuolar transport chaperone complex in yeast by disrupting a homotypic SPX domain interaction” (Nature Communications, 2023).

B1: Vtc4* (Vtc4(1–487), SPX and TTM domains of Vtc4 without the transmembrane domain) (domain or fragment)
chain: not shown
modifications: RED-tris-NTA 2nd generation dye on the His tag (MST); RED-NHS 2nd generation dye (MST with TTM2)
notes: Vtc4, catalytic subunit of the vacuolar transporter chaperone (VTC) complex, yeast, residues 1-487 (SPX and TTM domains, no transmembrane domain); pET27b(+) construct from GenScript with a C-terminal TEV site and His10 tag; The dye is absent in NMR and cross-linking; also called Vtc4ΔTM; source: E. coli Lemo21(DE3) BL21, purified (HisTrap, Superdex 200); not shown: His10, C-terminal, kept

Holding throughout (assay): MST; His-tagged Vtc4* or TTM4 labelled with RED-tris-NTA 2nd generation dye, titrated with Vtc2* or SPX2 proteins; MST buffer 15 mM HEPES pH 7.0, 50 mM NaCl, 2 mM DTT; Monolith NT.115, 100 % laser power
Holding throughout (details): both partners purified

The target of experiment [1] is T1, Vtc2* (Vtc2(1–553), SPX and TTM domains of Vtc2 without the transmembrane domain) (S. cerevisiae, UniProt P43585 1-553).
T1 construct: Vtc2, subunit of the vacuolar transporter chaperone (VTC) complex, S. cerevisiae, residues 1-553 (SPX and TTM domains, no transmembrane domain); pET27b(+) construct from GenScript with a C-terminal TEV site and His10 tag; source: E. coli Lemo21(DE3) BL21, purified (HisTrap, Superdex 200)
T1 sequence (looked up): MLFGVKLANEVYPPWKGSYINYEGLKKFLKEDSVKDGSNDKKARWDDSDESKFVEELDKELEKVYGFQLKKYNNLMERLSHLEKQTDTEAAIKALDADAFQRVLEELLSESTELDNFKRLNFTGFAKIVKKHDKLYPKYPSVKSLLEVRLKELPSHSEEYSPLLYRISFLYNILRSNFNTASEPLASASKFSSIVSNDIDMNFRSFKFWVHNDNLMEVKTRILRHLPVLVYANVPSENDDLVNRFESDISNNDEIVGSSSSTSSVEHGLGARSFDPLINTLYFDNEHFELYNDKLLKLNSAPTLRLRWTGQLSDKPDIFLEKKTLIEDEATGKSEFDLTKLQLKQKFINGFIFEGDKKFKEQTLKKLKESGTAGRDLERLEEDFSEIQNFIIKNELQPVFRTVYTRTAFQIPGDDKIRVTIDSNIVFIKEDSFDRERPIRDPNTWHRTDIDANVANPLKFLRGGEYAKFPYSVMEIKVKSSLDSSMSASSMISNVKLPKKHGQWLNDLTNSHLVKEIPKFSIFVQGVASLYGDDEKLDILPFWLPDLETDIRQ

The target of experiment [2] is B1.
Experiment [3] addresses T2, TTM4 (TTM domain of Vtc4, Vtc4(192–487)) (S. cerevisiae, UniProt P47075 192-487, RED-tris-NTA 2nd generation dye on the His tag).
T2 construct: Vtc4, yeast, residues 192-487 (triphosphate tunnel metalloenzyme domain); pET27b(+) construct from GenScript with a C-terminal TEV site and His10 tag; source: E. coli Lemo21(DE3) BL21, purified (HisTrap, Superdex 200); not shown: His10, C-terminal, kept

T2 sequence (P47075 192-487): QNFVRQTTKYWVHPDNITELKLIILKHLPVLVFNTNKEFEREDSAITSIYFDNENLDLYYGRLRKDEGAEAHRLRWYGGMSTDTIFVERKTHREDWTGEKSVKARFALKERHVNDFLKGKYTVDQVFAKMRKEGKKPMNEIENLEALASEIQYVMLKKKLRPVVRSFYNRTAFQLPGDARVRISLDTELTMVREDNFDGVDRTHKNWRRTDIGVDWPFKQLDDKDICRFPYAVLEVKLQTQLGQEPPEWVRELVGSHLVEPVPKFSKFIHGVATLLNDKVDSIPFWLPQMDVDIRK

As usually defined, the Kd is the constant that tells how readily two partners part at equilibrium. Low readings indicate higher affinity, high ones lower affinity. Turning to B1, in experiment [1], the Kd stood at 13.8 µM.

B2: SPX2∆α7 (Vtc2(1–182)) (domain or fragment, S. cerevisiae, UniProt P43585 1-182, looked up)
chain: MLFGVKLANEVYPPWKGSYINYEGLKKFLKEDSVKDGSNDKKARWDDSDESKFVEELDKELEKVYGFQLKKYNNLMERLSHLEKQTDTEAAIKALDADAFQRVLEELLSESTELDNFKRLNFTGFAKIVKKHDKLYPKYPSVKSLLEVRLKELPSHSEEYSPLLYRISFLYNILRSNFNTAS
notes: Vtc2, S. cerevisiae, residues 1-182 (SPX domain without helix α7 and the C-terminal linker); source: E. coli Lemo21(DE3) BL21, purified (as SPX2, cation exchange in 20 mM MES pH 6.0); not shown: His5, C-terminal, cleaved
On to B2, for which the binding result in experiment [2] is on record as “binds”.

B3: SPX2 S187A (domain or fragment, S. cerevisiae, UniProt P43585 1-201, looked up)
chain: MLFGVKLANEVYPPWKGSYINYEGLKKFLKEDSVKDGSNDKKARWDDSDESKFVEELDKELEKVYGFQLKKYNNLMERLSHLEKQTDTEAAIKALDADAFQRVLEELLSESTELDNFKRLNFTGFAKIVKKHDKLYPKYPSVKSLLEVRLKELPSHSEEYSPLLYRISFLYNILRSNFNTASEPLAAASKFSSIVSNDIDM
notes: Vtc2, S. cerevisiae, residues 1-201 (SPX2) with a point mutation in helix α7; also called serine 187 to alanine; source: E. coli Lemo21(DE3) BL21, purified; not shown: His5, C-terminal, cleaved
B3: in experiment [2], the binding result was “binds”.

B4: SPX2 (SPX domain of Vtc2, Vtc2(1–201)) (domain or fragment, S. cerevisiae, UniProt P43585 1-201, looked up)
chain: MLFGVKLANEVYPPWKGSYINYEGLKKFLKEDSVKDGSNDKKARWDDSDESKFVEELDKELEKVYGFQLKKYNNLMERLSHLEKQTDTEAAIKALDADAFQRVLEELLSESTELDNFKRLNFTGFAKIVKKHDKLYPKYPSVKSLLEVRLKELPSHSEEYSPLLYRISFLYNILRSNFNTASEPLASASKFSSIVSNDIDM
notes: Vtc2, S. cerevisiae, residues 1-201 (SPX domain with helix α7 and the C-terminal linker); Residues of the TEV site may remain at the C-terminus after cleavage; also called Vtc2-SPX domain; source: E. coli Lemo21(DE3) BL21, purified (HisTrap, TEV, reversed HisTrap, cation exchange, Superdex 75); not shown: His5, C-terminal, cleaved
For B4, in experiment [3], the “fold reduction of affinity against Vtc4*” value is approximately 20 fold.

B5: SPX2 Y19F (domain or fragment, S. cerevisiae, UniProt P43585 1-201, looked up)
chain: MLFGVKLANEVYPPWKGSFINYEGLKKFLKEDSVKDGSNDKKARWDDSDESKFVEELDKELEKVYGFQLKKYNNLMERLSHLEKQTDTEAAIKALDADAFQRVLEELLSESTELDNFKRLNFTGFAKIVKKHDKLYPKYPSVKSLLEVRLKELPSHSEEYSPLLYRISFLYNILRSNFNTASEPLASASKFSSIVSNDIDM
notes: Vtc2, S. cerevisiae, residues 1-201 (SPX2) with a pseudo-active point mutation; source: E. coli Lemo21(DE3) BL21, purified; not shown: His5, C-terminal, cleaved
As to B5, the binding result in experiment [2] is “binds”.

B6: SPX2 K127A (domain or fragment, S. cerevisiae, UniProt P43585 1-201, looked up)
chain: MLFGVKLANEVYPPWKGSYINYEGLKKFLKEDSVKDGSNDKKARWDDSDESKFVEELDKELEKVYGFQLKKYNNLMERLSHLEKQTDTEAAIKALDADAFQRVLEELLSESTELDNFKRLNFTGFAAIVKKHDKLYPKYPSVKSLLEVRLKELPSHSEEYSPLLYRISFLYNILRSNFNTASEPLASASKFSSIVSNDIDM
notes: as for B5
As for B6, the binding result in experiment [2] is reported as “binds”.

B7: SPX2 N121A (domain or fragment, S. cerevisiae, UniProt P43585 1-201, looked up)
chain: MLFGVKLANEVYPPWKGSYINYEGLKKFLKEDSVKDGSNDKKARWDDSDESKFVEELDKELEKVYGFQLKKYNNLMERLSHLEKQTDTEAAIKALDADAFQRVLEELLSESTELDNFKRLAFTGFAKIVKKHDKLYPKYPSVKSLLEVRLKELPSHSEEYSPLLYRISFLYNILRSNFNTASEPLASASKFSSIVSNDIDM
notes: as for B5
For the molecule B7, the binding result in experiment [2] is reported as “binds”.

B8: SPX2 S189A (domain or fragment, S. cerevisiae, UniProt P43585 1-201, looked up)
chain: MLFGVKLANEVYPPWKGSYINYEGLKKFLKEDSVKDGSNDKKARWDDSDESKFVEELDKELEKVYGFQLKKYNNLMERLSHLEKQTDTEAAIKALDADAFQRVLEELLSESTELDNFKRLNFTGFAKIVKKHDKLYPKYPSVKSLLEVRLKELPSHSEEYSPLLYRISFLYNILRSNFNTASEPLASAAKFSSIVSNDIDM
notes: Vtc2, S. cerevisiae, residues 1-201 (SPX2) with a point mutation in helix α7; also called serine 189 to alanine; source: E. coli Lemo21(DE3) BL21, purified; not shown: His5, C-terminal, cleaved
Regarding B8, in experiment [2], the binding result was “binds”.
